Read-outs that look alike come from different tables or passages of the source.
B1: SAM22-22 (mixed)
DNA 1: ACGTGAGAGCAAGTCCGTGGTAGGGCAGGTTGGGGTGACTACATACGACGA
DNA 2: TGCTCTCACGTTCGTCGTATGT
B2: SAM24-24 (mixed)
DNA 1: ACGTGAGAGCAGAGTCCGTGGTAGGGCAGGTTGGGGTGACTGACATACGACGA
DNA 2: CTGCTCTCACGTTCGTCGTATGTC
B3: SAM20-20 (mixed)
DNA 1: ACGTGAGAGCAGTCCGTGGTAGGGCAGGTTGGGGTGACTCATACGACGA
DNA 2: GCTCTCACGTTCGTCGTATG
B4: SAM16-16 with EcoRI site, EcoRI digested (mixed)
DNA 1: AATTCCGAAGTCCGTGGTAGGGCAGGTTGGGGTGACTATCGACGG
DNA 2: TCGG
DNA 3: AATTCCGTCGAT
B5: SAM16-16 (SAM16 with gap = 0) (mixed)
DNA 1: ACGTGAGAAGTCCGTGGTAGGGCAGGTTGGGGTGACTTACGACGA
DNA 2: TCTCACGTTCGTCGTA
B6: SAM16 with gap = 3 (mixed)
DNA 1: B5 DNA 1
DNA 2: TCTCACGTTTTTCGTCGTA

How the values were obtained:
[1] = target: T1, Human alpha-thrombin (Factor IIa) (Homo sapiens, UniProt P00734;P00734 328-363;364-622); assay: bead fluorescence binding
[2] = target: T1, Human alpha-thrombin (Factor IIa); assay: bead fluorescence binding; remark: listed apart in the source

Row | Binder | binding result [1] | Kd [1] | also measured
1 | B1 | binds | – | –
2 | B2 | – | 30.9 ± 5.67 nM | –
3 | B3 | binds | – | –
4 | B4 | – | – | Kd [2]: 56.3 ± 5.48 nM
5 | B5 | – | 2010 ± 87.3 nM | –
6 | B6 | – | 11.6 ± 2.87 nM | –

— paper doi:10.1101/2022.07.28.501929
